Experimental data from US20140072613A1, “Compositions and Methods for Treating Cutaneous Scarring” (priority 2012, published 2014).

Key:
Test in all cases: biochemical
Type in all cases: biochemical
266 human kinases [1] = target: T1, 266 human kinases (Homo sapiens, UniProt O14920); settings: IKKβ(h); 100 μM
T1 sequence (O14920 1-756): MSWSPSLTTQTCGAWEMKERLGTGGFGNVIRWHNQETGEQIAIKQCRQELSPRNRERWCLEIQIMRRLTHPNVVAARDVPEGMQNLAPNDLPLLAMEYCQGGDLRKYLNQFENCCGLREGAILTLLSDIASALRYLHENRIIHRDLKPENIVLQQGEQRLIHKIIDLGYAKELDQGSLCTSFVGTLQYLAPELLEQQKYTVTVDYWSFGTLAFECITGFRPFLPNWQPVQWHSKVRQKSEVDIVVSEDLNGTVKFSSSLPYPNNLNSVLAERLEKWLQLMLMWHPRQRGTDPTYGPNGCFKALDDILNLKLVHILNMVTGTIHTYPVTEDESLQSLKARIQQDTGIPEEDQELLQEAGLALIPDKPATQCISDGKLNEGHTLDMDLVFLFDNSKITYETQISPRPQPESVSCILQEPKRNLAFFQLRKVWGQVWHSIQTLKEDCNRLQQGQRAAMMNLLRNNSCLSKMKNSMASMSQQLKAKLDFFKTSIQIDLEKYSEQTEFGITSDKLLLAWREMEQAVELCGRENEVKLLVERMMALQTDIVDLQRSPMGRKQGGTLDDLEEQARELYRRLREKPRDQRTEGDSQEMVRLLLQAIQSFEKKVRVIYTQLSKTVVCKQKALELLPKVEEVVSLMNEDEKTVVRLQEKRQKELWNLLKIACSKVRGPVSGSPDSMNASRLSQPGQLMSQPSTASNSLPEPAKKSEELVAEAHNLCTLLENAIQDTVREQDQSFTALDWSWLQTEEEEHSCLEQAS
In short: (§1)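 Kinase phosphorylates cationic substrate with radiolabelled ATP phosphate; substrate retained on anionic filter membrane; scintillation count; % of 100% activity control.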

266 human kinases [2] = target: T2, 266 human kinases (Homo sapiens, UniProt Q8IW41); settings: PRAK(h); 100 μM
T2 sequence (Q8IW41 1-473): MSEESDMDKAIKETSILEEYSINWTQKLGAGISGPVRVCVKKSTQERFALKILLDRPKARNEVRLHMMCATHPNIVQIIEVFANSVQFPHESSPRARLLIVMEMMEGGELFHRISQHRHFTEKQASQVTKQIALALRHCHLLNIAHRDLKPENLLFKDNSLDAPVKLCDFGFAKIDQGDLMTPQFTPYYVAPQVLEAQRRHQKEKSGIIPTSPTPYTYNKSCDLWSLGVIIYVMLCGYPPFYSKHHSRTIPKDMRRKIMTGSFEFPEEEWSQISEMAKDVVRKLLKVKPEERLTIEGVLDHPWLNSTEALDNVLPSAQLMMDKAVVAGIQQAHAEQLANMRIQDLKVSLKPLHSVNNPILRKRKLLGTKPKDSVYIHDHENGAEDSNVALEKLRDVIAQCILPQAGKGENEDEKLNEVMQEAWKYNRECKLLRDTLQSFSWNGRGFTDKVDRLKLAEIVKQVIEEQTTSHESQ
In short: as §1

266 human kinases [3] = target: T3, 266 human kinases (Homo sapiens, UniProt O00418); settings: eEF-2K(h); 100 μM
T3 sequence (O00418 whole entry, looked up): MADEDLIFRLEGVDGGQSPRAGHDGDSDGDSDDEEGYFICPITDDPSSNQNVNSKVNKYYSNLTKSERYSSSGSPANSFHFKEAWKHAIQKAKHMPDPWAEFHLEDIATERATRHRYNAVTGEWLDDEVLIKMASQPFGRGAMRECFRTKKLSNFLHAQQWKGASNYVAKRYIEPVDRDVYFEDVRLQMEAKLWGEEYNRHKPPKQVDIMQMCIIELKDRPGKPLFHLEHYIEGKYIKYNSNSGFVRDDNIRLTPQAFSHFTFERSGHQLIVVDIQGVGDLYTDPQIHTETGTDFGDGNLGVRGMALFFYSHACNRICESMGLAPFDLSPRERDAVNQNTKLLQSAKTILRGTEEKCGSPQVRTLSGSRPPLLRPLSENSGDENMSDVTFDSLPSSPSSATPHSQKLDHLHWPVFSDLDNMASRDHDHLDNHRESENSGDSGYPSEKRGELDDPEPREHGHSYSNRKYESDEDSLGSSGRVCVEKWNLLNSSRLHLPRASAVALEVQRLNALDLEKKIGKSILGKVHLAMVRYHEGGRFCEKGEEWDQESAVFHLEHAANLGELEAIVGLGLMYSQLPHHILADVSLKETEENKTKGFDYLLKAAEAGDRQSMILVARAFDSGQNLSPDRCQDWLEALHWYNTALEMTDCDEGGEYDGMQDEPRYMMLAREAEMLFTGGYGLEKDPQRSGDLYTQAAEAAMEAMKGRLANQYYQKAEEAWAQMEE
In short: as §1

266 human kinases [4] = target: 266 human kinases (Homo sapiens, UniProt Q00526); settings: CDK3/cyclinE(h); 100 μM
In short: as §1

266 human kinases [5] = target: T4, 266 human kinases (Homo sapiens, UniProt Q13188); settings: MST2(h); 100 μM
T4 sequence (Q13188 1-491): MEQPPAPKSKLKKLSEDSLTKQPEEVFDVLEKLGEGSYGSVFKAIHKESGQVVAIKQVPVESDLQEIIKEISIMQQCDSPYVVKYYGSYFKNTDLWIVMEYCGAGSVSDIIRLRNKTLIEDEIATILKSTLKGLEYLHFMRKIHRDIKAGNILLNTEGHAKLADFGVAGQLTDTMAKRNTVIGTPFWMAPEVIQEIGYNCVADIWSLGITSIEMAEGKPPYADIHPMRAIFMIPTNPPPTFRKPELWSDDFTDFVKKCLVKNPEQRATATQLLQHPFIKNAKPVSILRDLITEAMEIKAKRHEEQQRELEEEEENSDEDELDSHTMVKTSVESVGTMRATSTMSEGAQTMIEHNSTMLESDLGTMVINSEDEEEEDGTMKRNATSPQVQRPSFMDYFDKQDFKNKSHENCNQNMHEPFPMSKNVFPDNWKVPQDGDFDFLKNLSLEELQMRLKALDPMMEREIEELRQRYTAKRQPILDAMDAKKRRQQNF
In short: as §1

266 human kinases [6] = target: 266 human kinases (Homo sapiens, UniProt P00519, H396P); settings: Abl(H8396P)(h); 100 μM
In short: as §1

266 human kinases [7] = target: 266 human kinases (Homo sapiens, UniProt P00519, M351T); settings: Abl(M351T)(h); 100 μM
In short: as §1

266 human kinases [8] = target: 266 human kinases (Homo sapiens, UniProt O43318); settings: TAK1(h); 100 μM
In short: as §1

Sequence of 266 human kinases (Homo sapiens, UniProt Q00526) (Q00526 whole entry): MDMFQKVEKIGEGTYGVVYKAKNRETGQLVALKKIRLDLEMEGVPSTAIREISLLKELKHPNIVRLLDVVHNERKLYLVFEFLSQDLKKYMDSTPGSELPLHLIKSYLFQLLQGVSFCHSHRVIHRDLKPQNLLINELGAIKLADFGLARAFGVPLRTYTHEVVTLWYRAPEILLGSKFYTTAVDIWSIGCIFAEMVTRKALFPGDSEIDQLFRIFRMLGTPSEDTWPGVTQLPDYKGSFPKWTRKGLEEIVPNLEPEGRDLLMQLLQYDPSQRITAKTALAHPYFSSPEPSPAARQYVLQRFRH
Sequence of 266 human kinases (Homo sapiens, UniProt O43318) (O43318 whole entry): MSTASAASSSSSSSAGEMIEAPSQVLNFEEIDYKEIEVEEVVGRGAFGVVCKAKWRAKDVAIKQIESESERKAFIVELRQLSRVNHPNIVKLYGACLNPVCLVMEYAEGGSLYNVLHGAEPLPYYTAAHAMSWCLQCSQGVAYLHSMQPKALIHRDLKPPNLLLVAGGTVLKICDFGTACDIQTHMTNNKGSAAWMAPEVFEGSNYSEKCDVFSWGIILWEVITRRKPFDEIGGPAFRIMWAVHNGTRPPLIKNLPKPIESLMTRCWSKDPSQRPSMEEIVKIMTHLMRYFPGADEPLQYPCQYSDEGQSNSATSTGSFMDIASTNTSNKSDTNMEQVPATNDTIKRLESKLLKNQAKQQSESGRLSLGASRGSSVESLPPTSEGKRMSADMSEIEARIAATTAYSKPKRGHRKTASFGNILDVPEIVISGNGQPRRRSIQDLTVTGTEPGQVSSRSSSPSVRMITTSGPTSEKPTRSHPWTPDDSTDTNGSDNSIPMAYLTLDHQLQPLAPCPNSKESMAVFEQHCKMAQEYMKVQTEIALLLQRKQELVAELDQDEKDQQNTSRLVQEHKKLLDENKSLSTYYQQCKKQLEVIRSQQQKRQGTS

Sequence	% activity (266 human kinases [1]) [%]	% activity (266 human kinases [2]) [%]	% activity (266 human kinases [3]) [%]	% activity (266 human kinases [4]) [%]	% activity (266 human kinases [5]) [%]	% activity (266 human kinases [6]) [%]	% activity (266 human kinases [7]) [%]	% activity (266 human kinases [8]) [%]
HRRIKAWLKKIKALARQLGVAA (mammal) [MMI-0500]	71	95	43	8	2	51	61	
YARAAARQARAKALNRQLGVA (mammal) [MMI-0200]								124
